Data: article PMC11507936

Target: non-structural protein 3 (Nsp3) ubiquitin-like domain 1 (Ubl1), 1-111

Nucleocapsid protein (N) (from UniProt P0DTC9)
other: partition coefficient: weaker; reference 12.6 ± 0.1
